Where a chain is given by its changes, count along the chain named. Each block holds one binder with its values, some of them ahead of it.
Key:
Human ROBO2 Ig1-Ig2-His [1] = target: T1, Human ROBO2 Ig1-Ig2-His (human, UniProt Q9HCK4 31-220); experiment: Octet (BLI)
T1 construct: the His tag is named only in the SPR paragraphs; the Octet and ELISA paragraphs print 'ROBO2 Ig1-Ig2' without a tag; also called ROBO2 Ig1-2; Human ROBO2 Ig 1,2
T1 sequence: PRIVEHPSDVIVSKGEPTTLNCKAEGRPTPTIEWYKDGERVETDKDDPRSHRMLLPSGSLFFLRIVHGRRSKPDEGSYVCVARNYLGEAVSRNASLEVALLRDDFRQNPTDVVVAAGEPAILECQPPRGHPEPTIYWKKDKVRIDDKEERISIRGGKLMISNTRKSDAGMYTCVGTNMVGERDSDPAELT

[2] = target: T2, Human ROBO2 overexpressed on HEK293 cells (human, UniProt Q9HCK4 22-1378); experiment: flow cytometry, HEK293 cells
T2 construct: also called ROBO2 cells; native ROBO2
T2 sequence: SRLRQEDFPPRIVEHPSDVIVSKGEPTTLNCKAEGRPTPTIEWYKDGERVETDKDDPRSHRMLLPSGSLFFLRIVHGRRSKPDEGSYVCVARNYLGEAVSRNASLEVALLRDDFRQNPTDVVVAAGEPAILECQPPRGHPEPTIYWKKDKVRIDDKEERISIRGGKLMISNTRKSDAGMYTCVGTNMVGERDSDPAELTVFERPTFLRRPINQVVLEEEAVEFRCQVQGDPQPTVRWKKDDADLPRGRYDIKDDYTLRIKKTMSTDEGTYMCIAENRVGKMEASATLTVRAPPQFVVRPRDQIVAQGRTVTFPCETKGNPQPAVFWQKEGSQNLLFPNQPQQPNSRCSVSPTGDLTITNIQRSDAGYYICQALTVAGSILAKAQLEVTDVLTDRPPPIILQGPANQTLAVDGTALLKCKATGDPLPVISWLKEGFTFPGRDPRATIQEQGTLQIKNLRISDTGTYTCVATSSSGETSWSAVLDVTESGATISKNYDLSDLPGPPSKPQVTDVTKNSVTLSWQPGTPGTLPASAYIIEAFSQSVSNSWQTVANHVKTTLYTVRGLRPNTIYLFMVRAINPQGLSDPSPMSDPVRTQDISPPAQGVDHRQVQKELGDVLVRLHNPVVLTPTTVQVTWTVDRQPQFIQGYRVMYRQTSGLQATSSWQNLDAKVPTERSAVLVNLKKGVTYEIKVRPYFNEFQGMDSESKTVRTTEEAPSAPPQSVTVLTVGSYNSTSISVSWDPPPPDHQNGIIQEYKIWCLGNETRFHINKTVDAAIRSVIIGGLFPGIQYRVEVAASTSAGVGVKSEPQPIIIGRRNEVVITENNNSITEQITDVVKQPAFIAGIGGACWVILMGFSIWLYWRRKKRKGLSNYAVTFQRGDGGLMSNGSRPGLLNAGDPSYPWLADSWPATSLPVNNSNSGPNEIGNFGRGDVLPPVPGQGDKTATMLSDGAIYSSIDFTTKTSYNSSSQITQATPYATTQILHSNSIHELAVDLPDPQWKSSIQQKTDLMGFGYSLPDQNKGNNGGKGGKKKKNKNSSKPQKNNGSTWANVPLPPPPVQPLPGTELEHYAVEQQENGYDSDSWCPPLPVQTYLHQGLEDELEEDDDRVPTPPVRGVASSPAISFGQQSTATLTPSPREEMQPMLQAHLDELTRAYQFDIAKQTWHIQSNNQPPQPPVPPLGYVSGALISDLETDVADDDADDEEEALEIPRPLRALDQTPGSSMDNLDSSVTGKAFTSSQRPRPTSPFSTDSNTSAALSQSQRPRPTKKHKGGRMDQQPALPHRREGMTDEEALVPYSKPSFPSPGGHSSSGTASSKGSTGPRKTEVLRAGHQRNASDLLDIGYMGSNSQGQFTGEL
Method: Using flow cytometry, improvement in the binding EC₅₀ to human ROBO2 relative to the parental 93H2 was evaluated. Starting at 6.7 nM, 11-point, 3-fold dilution series were made for each antibody and used to stain HEK293 overexpressing human ROBO2 as described above for the ROBO2 fold selectivity (Example 2). […] In addition to measuring improved binding to human ROBO2, it was important to ensure that high affinity binding to both cynomolgus monkey ROBO2 and rat ROBO2 was maintained. Using HEK293 cells overexpressing either cynomolgus monkey ROBO2 or rat ROBO2, the relative dose-dependent binding of 93H2, Abcs25 and Abcs35 was evaluated as described above. High affinity binding to both cynomolgus monkey and rat ROBO2 was maintained in Abcs25 and Abcs35 (Table 4). […] Briefly, Abcs35 was immobilized to 300 resonance units (RU) on a CM5 chip. Association of ROBO2 Ig1-Ig2-His (ROBO2) was measured over 5 minutes and dissociation was followed for a period of 10 minutes.
(§1) The binding profile of Abcs35-J compared to Abcs35 was determined for human ROBO2, orthologs from cynomolgus monkey and rat, human ROBO1 and specificity for the RSK epitope from ROBO2 but not KSR from ROBO1. Binding was assessed by flow cytometry as described in Examples 2 (homolog specificity), Example 3 (ortholog reactivity) and Example 5 (RSK vs KSR epitope specificity). […] Binding of the antibodies was detected using a secondary fluorochrome conjugated anti-human IgG F(ab′)₂ antibody and samples analyzed on a Fortessa cytometer (BD Biosciences).

[3] = target: T3, Human ROBO1 overexpressed on HEK293 cells (human, UniProt Q9Y6N7 26-1651); experiment: flow cytometry on HEK293 cells overexpressing human ROBO1
T3 construct: also called ROBO1 cells
Method: as §1, with “Biosciences). […] FIGS. 16A-16F depicts binding profiles of Abcs35 (black circles) or Abcs35-J (grey squares) to human ROBO2 (FIG. 16A), cynomolgus monkey ROBO2 (FIG. 16B), rat ROBO2 (FIG. 16C), human ROBO1 (FIG. 16D), ROBO1 containing the ROBO2 RSK epitope (FIG. 16E) or ROBO2 containing the ROBO1 KSR epitope (FIG. 16 F).” for “Biosciences).”

Human ROBO2 Ig1-Ig2-His [4] = target: T1, Human ROBO2 Ig1-Ig2-His; experiment: Octet method and SPR method

T3 sequence (Q9Y6N7 26-1651 limits assumed): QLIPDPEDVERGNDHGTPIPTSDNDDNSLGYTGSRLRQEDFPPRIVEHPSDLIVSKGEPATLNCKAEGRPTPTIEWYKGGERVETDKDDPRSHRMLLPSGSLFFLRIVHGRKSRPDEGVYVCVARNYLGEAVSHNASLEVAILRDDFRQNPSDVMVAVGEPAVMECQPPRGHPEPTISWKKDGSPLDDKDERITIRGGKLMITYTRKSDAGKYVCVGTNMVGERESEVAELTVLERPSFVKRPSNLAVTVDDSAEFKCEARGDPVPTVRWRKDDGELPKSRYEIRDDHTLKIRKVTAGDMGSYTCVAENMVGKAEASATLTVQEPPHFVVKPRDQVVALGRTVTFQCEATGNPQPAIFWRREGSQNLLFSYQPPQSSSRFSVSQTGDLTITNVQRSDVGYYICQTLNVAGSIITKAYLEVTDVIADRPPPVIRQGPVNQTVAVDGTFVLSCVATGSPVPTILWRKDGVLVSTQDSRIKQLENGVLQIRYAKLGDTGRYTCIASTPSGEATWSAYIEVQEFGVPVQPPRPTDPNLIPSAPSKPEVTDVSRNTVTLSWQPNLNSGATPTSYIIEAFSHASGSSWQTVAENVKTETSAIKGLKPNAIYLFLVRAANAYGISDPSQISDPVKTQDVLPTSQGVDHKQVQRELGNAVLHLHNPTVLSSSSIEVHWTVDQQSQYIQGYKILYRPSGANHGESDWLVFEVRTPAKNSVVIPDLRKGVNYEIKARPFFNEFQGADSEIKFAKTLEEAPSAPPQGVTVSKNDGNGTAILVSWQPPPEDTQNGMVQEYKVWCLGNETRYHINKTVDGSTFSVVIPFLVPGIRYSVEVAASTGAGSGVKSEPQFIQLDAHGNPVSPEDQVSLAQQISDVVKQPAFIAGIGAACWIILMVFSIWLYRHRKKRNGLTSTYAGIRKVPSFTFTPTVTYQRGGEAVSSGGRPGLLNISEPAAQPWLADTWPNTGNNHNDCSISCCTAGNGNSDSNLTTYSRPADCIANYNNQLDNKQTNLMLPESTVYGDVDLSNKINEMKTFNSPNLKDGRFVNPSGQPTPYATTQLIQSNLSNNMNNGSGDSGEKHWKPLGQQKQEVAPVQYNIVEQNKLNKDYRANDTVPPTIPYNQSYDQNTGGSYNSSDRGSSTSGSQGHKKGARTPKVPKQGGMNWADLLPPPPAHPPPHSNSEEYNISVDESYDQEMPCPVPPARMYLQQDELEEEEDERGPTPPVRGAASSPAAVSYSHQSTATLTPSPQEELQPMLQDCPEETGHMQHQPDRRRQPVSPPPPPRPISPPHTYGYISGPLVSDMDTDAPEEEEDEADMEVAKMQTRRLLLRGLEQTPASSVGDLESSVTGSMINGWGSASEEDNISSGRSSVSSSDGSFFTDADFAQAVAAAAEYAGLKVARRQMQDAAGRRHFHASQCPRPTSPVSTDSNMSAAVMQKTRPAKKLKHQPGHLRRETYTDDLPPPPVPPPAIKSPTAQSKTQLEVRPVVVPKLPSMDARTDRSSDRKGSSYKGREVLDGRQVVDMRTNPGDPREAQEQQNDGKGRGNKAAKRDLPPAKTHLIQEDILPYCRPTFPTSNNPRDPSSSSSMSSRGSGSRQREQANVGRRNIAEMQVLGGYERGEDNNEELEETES

Kd (Human ROBO2 Ig1-Ig2-His [1]): 37 nM
B1: 93H2 (antibody, human IgG1, kappa, V domains shown)
VH: EVQLVQSGAEVKKPGASVKVSCKASGYTFTGYYMHWVRQAPGQGLEWMGWINPNSGATNFPQKFQGRVTMTRDTSITTAYMDLSRLRSDDTAVYYCARESGDDAFDIWGQGTMVTVSS
VL: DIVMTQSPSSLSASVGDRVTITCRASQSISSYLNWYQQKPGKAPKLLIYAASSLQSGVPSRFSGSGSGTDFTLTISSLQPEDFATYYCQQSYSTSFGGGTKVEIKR
notes: also called parental 93H2; 93H2 mAb

EC50 [2]: 0.102 nM
B2: Abcs35-J (antibody, human IgG1, kappa)
heavy: EVQLVQSGAEVKKPGASVKVSCKASGYTFTGYYMHWVRQAPGQGLEWMGWINPKNGDTEFPQKFQGRVTMTRDTSITTAYMELSRLRSDDTAVYYCARESGDDAFDIWGQGTMVTVSSASTKGPSVFPLAPSSKSTSGGTAALGCLVKDYFPEPVTVSWNSGALTSGVHTFPAVLQSSGLYSLSSVVTVPSSSLGTQTYICNVNHKPSNTKVDKKVEPKSCDKTHTCPPCPAPEAAGAPSVFLFPPKPKDTLMISRTPEVTCVVVDVSHEDPEVKFNWYVDGVEVHNAKTKPREEQYNSTYRVVSVLTVLHQDWLNGKEYKCKVSNKALPAPIEKTISKAKGQPREPQVYTLPPSREEMTKNQVSLTCLVKGFYPSDIAVEWESNGQPENNYKTTPPVLDSDGSFFLYSKLTVDKSRWQQGNVFSCSVMHEALHNHYTQKSLSLSPGK
light: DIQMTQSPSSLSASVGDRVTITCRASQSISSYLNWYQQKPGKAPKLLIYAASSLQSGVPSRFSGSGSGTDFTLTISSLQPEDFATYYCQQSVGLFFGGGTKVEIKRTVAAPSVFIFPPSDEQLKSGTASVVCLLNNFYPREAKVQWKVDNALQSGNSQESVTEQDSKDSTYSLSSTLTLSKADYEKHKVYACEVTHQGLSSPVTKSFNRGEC
notes: germlined variant of Abcs35; also called ABCS-J
binding result [3]: no binding (tested: last point just below 10^1 nM)

B3: Abcs35 (antibody, human IgG1, kappa)
heavy: B2 heavy with E82D
light: DIVMTQSPSSLSASVGDRVTITCRASQSISSYLNWYQQKPGKAPKLLIYAASSLQSGVPSRFSGSGSGTDFTLTISSLQPEDFATYYCQQSVGLFFGGGTKVEIKRTVAAPSVFIFPPSDEQLKSGTASVVCLLNNFYPREAKVQWKVDNALQSGNSQESVTEQDSKDSTYSLSSTLTLSKADYEKHKVYACEVTHQGLSSPVTKSFNRGEC
notes: fully human IgG1; VH of Ab96 with VL of Ab123
Kd (Human ROBO2 Ig1-Ig2-His [4]): 0.279 nM | EC50 [2]: 0.089 nM | binding result [3]: no binding (tested: last point just below 10^1 nM)
